Broadly, the Kd is the constant that tells how readily two partners part at equilibrium.

Read-outs that look alike come from different tables or passages of the source.

The values that follow come from article PMC3554232.

Holding throughout (assay): smFRET
Data set [1] concerns the target T1, yNhp6A (Saccharomyces cerevisiae, UniProt P11632 1-93).
The target in data set [2] is T1, yNhp6A. The source holds these as a separate data set.
Data set [3] has as its target T1, yNhp6A. This is another data set of the same source.
The target in data set [4] is T1, yNhp6A. This is another data set of the same source.

T1 sequence (P11632 whole entry): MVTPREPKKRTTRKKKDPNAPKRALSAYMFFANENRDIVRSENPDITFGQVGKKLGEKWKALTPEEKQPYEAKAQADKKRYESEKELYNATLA

B1: linear_18b (dsDNA)
DNA 1: TGGTTATATCATCTAGGC
DNA 2: GCCTAGATGATATAACCATTTTTTTTTTTTTTT
Consider B1, for which the binding signal in the data set with yNhp6A [1] is ~2 fold affinity vs linear_18a.

B2: linear_18a (dsDNA)
DNA 1: TGGCGACGGCAGCGAGGC
DNA 2: GCCTCGCTGCCGTCGCCATTTTTTTTTTTTTTT
For B2, in the data set with yNhp6A [2], the Kd was around 1 nM.

B3: linear_15a (dsDNA)
DNA 1: CGACGGCAGCGAGGC
DNA 2: GCCTCGCTGCCGTCGCCATTTTTTTTTTTTTTT
On to B3, for which the binding result with yNhp6A [3] is on record as “binds”.

B4: bulge_15a (dsDNA)
DNA 1: CGACGGCAAAGCGAGGC
DNA 2: GCCTCGCTGCCGTCGCCATTTTTTTTTTTTTTT
Consider B4, for which the binding result in the data set with yNhp6A [3] is listed as “binds”.

B5: bulge_18a (dsDNA)
DNA 1: TGGCGACGGAACAGCGAGGC
DNA 2: GCCTCGCTGCCGTCGCCATTTTTTTTTTTTTTT
Molecule B5 registered a binding signal with yNhp6A [4] of around 2 fold kon vs linear_18a.
